Source: patent US20230391828A1, “REGULATORS OF CELL DIVISION” (TECHNISCHE UNIVERSITÄT DRESDEN, priority 2020, published 2023)
Bridge positions count the residues as written; N and C are the ends. Square brackets hold non-standard residues; d marks the D form. R8 = C=CCCCCCC[C@@](C)(N)C(=O)O; S5 = C=CCCC[C@](C)(N)C(=O)O

Assays:
[1] = target: recombinant human APC/C (Strep-tagged APC4), expressed in SF9 cells (human) (UniProt Q9NYG5); assay: cell-based or functional assay
[2] = target: recombinant human APC/C (Strep-tagged APC4), expressed in SF9 cells (human) (UniProt Q9NYG5); assay: inhibitory constant calculated with a model for non-competitive inhibition (Prism 6.0) from the in vitro APC/C ubiquitination assay (UBE2C, securin titration, with or without 3 µM G3-6)

recombinant human APC/C (Strep-tagged APC4), expressed in SF9 cells (human), sequence (Q9NYG5 whole entry, chain 1 of 2): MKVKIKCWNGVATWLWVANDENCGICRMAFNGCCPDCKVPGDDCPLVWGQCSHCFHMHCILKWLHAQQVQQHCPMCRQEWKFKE
recombinant human APC/C (Strep-tagged APC4), expressed in SF9 cells (human), sequence (Q9UJX5 whole entry, chain 2 of 2, further chain): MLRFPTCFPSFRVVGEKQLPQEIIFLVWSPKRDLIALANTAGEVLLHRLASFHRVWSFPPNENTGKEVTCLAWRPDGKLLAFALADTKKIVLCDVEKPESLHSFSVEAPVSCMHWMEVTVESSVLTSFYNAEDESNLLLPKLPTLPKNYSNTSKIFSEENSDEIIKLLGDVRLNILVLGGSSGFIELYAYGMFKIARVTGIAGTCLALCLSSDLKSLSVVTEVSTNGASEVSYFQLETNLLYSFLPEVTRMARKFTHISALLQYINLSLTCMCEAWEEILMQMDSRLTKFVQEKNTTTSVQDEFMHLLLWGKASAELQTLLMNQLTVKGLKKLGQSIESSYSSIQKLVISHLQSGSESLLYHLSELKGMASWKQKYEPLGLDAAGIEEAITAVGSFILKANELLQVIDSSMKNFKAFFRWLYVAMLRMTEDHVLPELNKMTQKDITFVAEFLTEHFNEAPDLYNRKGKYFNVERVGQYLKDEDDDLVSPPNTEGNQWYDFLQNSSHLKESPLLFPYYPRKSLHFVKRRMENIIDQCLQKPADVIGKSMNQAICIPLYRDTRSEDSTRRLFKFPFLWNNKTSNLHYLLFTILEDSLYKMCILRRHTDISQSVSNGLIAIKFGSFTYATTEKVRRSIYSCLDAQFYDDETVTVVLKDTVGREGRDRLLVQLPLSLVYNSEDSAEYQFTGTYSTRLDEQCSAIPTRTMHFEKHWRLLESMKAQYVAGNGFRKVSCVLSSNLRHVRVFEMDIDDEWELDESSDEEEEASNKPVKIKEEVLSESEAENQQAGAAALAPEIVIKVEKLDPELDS

B1: G3-6, Ac-cyclo(4,11)-EWWZIKEIQRXRRA-NH2 (peptide)
peptide: Ac-EWW[R8]IKEIQR[S5]RRA-NH2
modifications: staple 4-11
SMILES: CC[C@H](C)[C@@H]1NC(=O)[C@H](CCC(=O)O)NC(=O)[C@H](CCCCN)NC(=O)[C@H]([C@@H](C)CC)NC(=O)[C@](C)(NC(=O)[C@H](Cc2c[nH]c3ccccc23)NC(=O)[C@H](Cc2c[nH]c3ccccc23)NC(=O)[C@H](CCC(=O)O)NC(C)=O)CCCCCCC=CCCC[C@@](C)(C(=O)N[C@@H](CCCNC(=N)N)C(=O)N[C@@H](CCCNC(=N)N)C(=O)N[C@@H](C)C(N)=O)NC(=O)[C@H](CCCNC(=N)N)NC(=O)[C@H](CCC(N)=O)NC1=O
IC50, in vitro APC/C ubiquitination assay (UBE2C, securin, methylated ubiquitin, 0.01-100 µM G3-6, 10 min) [1]: 1.96 µM | Ki [2]: 5 µM
